B1: Glutamate receptor 4 (Rattus norvegicus (Rat)), P19493 (parent)
chain: MRIICRQIVLLFSGFWGLAMGAFPSSVQIGGLFIRNTDQEYTAFRLAIFLHNTSPNASEAPFNLVPHVDNIETANSFAVTNAFCSQYSRGVFAIFGLYDKRSVHTLTSFCSALHISLITPSFPTEGESQFVLQLRPSLRGALLSLLDHYEWNCFVFLYDTDRGYSILQAIMEKAGQNGWHVSAICVENFNDVSYRQLLEELDRRQEKKFVIDCEIERLQNILEQIVSVGKHVKGYHYIIANLGFKDISLERFIHGGANVTGFQLVDFNTPMVTKLMDRWKKLDQREYPGSETPPKYTSALTYDGVLVMAETFRSLRRQKIDISRRGNAGDCLANPAAPWGQGIDMERTLKQVRIQGLTGNVQFDHYGRRVNYTMDVFELKSTGPRKVGYWNDMDKLVLIQDMPTLGNDTAAIENRTVVVTTIMESPYVMYKKNHEMFEGNDKYEGYCVDLASEIAKHIGIKYKIAIVPDGKYGARDADTKIWNGMVGELVYGKAEIAIAPLTITLVREEVIDFSKPFMSLGISIMIKKPQKSKPGVFSFLDPLAYEIWMCIVFAYIGVSVVLFLVSRFSPYEWHTEEPEDGKEGPSDQPPNEFGIFNSLWFSLGAFMQQGCDISPRSLSGRIVGGVWWFFTLIIISSYTANLAAFLTVERMVSPIESAEDLAKQTEIAYGTLDSGSTKEFFRRSKIAVYEKMWTYMRSAEPSVFTRTTAEGVARVRKSKGKFAFLLESTMNEYTEQRKPCDTMKVGGNLDSKGYGVATPKGSSLGNAVNLAVLKLNEQGLLDKLKNKWWYDKGECGSGGGDSKDKTSALSLSNVAGVFYILVGGLGLAMLVALIEFCYKSRAEAKRMKLTFSEATRNKARLSITGSVGENGRVLTPDCPKAVHTGTAIRQSSGLAVIASDLP

Variants of: B1
Conditions: with mk08_rat Mapk8, P49185
mk08_rat Mapk8, P49185, sequence (P49185 whole entry): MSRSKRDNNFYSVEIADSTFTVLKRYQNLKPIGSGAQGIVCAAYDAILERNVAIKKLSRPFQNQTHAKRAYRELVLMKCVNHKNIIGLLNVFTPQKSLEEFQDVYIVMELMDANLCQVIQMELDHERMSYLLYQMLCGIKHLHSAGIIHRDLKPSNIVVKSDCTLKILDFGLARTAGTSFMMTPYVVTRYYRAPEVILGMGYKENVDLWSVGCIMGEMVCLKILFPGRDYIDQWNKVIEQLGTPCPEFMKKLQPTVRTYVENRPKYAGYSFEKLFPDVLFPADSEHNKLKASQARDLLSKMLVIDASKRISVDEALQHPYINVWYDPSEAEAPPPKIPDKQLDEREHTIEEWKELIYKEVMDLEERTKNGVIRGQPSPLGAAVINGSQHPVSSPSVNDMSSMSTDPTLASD

| effect of a mutation on the interaction | Variant |
| --- | --- |
| disrupting interaction | T855A |

Source: IntAct's records for PubMed 18188153
